Data as given in US20220380455A1.

How the values were obtained:
[1] = molecular target: cynomolgus (cyno) MS4A6A (cynomolgus); test: flow cytometry, hybridoma supernatant, HEK293 transfected with cyno MS4A6A over parental HEK293; Screen 2
[2] = molecular target: cynomolgus (cyno) MS4A6A (cynomolgus); test: flow cytometry, hybridoma supernatant, HEK293 transfected with cyno MS4A6A over parental HEK293; Screen 1

Sequence of cynomolgus (cyno) MS4A6A (cynomolgus) (Q9H2W1 other isoform, or with tags, fused parts or gaps): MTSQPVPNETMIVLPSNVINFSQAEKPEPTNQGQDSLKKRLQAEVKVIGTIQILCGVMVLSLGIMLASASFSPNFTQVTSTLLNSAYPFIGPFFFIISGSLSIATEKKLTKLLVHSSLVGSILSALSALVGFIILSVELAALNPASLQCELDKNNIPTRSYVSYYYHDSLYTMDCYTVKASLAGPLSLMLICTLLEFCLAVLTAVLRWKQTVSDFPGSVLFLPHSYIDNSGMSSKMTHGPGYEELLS

B1: 6A-20 (antibody, V domains shown)
VH: EVQLQQSGPELVKPGASVKMSCKASGYTFTDYFMKWVKQSHGKSLEWIGDINPKNGDTFYNQKFKGKATLTVDKSSSTAYMQLNSLTSEDSAVYYCARPGYFDVWGAGTTVTVSS
VL: DIVMTQAAPSVPVTPGESVSISCRSSKSLLHSDGNTYLYWFLQRPGQSPQLLIYRMSNLAPGVPDRFSGSGSGTAFTLRISRVEAEDVGVYYCMQHLEFPFIFGAGTKLELK
ratio of APC MFI on MS4A6A+/HEK parental cells [1]: 0.2 | ratio of APC MFI on MS4A6A+/HEK parental cells [2]: 2.7
